Holding throughout (test): cell-based or functional assay
Assay [1] deals with HIV-1 Env of isolate 92TH021 (clade AE), on pseudovirus (HIV-1).
Assay [2] deals with HIV-1 Env of isolate MGRM-D-013 (pseudovirus) (HIV-1).
Assay [3] addresses HIV-1 Env of isolate 98CN006 (pseudovirus) (HIV-1).
Assay [4] has as its target HIV-1 Env of isolate MGRM-D-002 (pseudovirus) (HIV-1).
For assay [5], the target named is HIV-1 Env of isolate QH0692.42 (subtype B pseudovirus) (HIV-1).
Assay [6] concerns the target HIV-1 Env of isolate MGRM-D-008 (pseudovirus) (HIV-1).
Assay [7] has as its target HIV-1 Env of isolate MGRM-Chronic-B-024 (subtype B pseudovirus) (HIV-1).
Assay [8] concerns the target HIV-1 Env of isolate MGRM-AG-002 (HIV-1).
The target of assay [9] is HIV-1 Env of isolate MGRM-D-012 (pseudovirus) (HIV-1).
In assay [10] the target is HIV-1 Env of isolate MGRM-D-018 (pseudovirus) (HIV-1).
Assay [11] deals with HIV-1 MGRM-C-028 Env (pseudovirus, clade C) (HIV-1).
The target in assay [12] is HIV-1 JRFL Env (pseudovirus) (HIV-1).
Assay [13] concerns the target HIV-1 93UG077 Env (pseudovirus, clade A) (HIV-1).
In assay [14] the target is HIV-1 92BR020 Env (pseudovirus) (HIV-1).
The target of assay [15] is HIV-1 92BR020 Env (pseudovirus, clade B) (HIV-1).
Assay [16] concerns the target HIV-1 APV6 Env (pseudovirus, clade B) (HIV-1).
In assay [17] the target is HIV-1 Env of pseudovirus MGRM-Chronic-B-010 (HIV-1).
In assay [18] the target is HIV-1 Env of pseudovirus MGRM-AE-008 (clade CRF01_AE) (HIV-1).
Assay [19] addresses HIV-1 Env of isolate 92UG005 (clade D pseudovirus) (HIV-1).
For assay [20], the target named is HIV-1 Env of isolate VLGCA1 (clade A pseudovirus) (HIV-1).
In assay [21] the target is HIV-1 Env of isolate LAVIC_18 (HIV-1).
The target of assay [22] is HIV-1 Env of pseudovirus MGRM-F1-020 (HIV-1).
Assay [23] addresses HIV-1 Env of pseudovirus MGRM-F1-014 (HIV-1).
Assay [24] concerns the target HIV-1 envelope glycoprotein (Env) of isolate MGRM-A-009, clade A (HIV-1).
The target in assay [25] is HIV-1 Env of isolate 92RW024 (clade A pseudovirus) (HIV-1).
The target in assay [26] is HIV-1 Env of isolate MGRM-D-020 (clade D pseudovirus) (HIV-1).
Assay [27] concerns the target HIV-1 Env of pseudovirus MGRM-F1-017 (HIV-1).
The target of assay [28] is HIV-1 APV-13 envelope glycoprotein (Env) on pseudovirus (HIV-1).
For assay [29], the target named is HIV-1 Env of isolate MGRM-D-001 (clade D pseudovirus) (HIV-1).
The target in assay [30] is HIV-1 Env of isolate MGRM-Chronic-B-002, clade B, on pseudovirus (HIV-1).
Assay [31] addresses HIV-1 Env of pseudovirus MGRM-G-014 (HIV-1, clade G isolate MGRM-G-014).
Assay [32] addresses HIV-1 Env of pseudovirus MGRM-G-004 (clade G) (HIV-1).
Assay [33] has as its target HIV-1 Env of isolate MGRM-D-021 (clade D pseudovirus) (HIV-1).

A word on the IC50: it is the concentration at which inhibition is half-maximal. Low values mean greater potency, high ones weaker potency. Regarding 4838_L06 (PGT-121) (antibody), the IC50, pseudovirus neutralization in [1] was > 10 µg/mL; in [2], > 50 µg/mL; in assay [3], 0.01 µg/mL; in assay [4], 0.006 µg/mL; in assay [6], > 50 µg/mL; in assay [9], > 50 µg/mL. In [10], this substance displayed an IC50, pseudovirus neutralization of 0.005 µg/mL. The IC50 (µg/mL), pseudovirus neutralization in assay [5] was found to be 0.823 µg/mL; in assay [7], 0.195 µg/mL. Besides, the IC50 in assay [8] was > 50 µg/mL.
In the case of 4858_P08 (PGT-123) (antibody), the IC50, pseudovirus neutralization in assay [1] was > 10 µg/mL; in assay [2], > 50 µg/mL; in [3], 0.008 µg/mL; in assay [4], 0.012 µg/mL; in [6] it was > 50 µg/mL; in assay [9], > 50 µg/mL. Moreover, the IC50, pseudovirus neutralization in assay [10] stood at 0.007 µg/mL. Also, the IC50 (µg/mL), pseudovirus neutralization in assay [5] was 0.158 µg/mL; in assay [7] it was > 50 µg/mL. Moreover, the IC50 neutralization in assay [11] is 0.443 µg/mL; in assay [13], 0.0303 µg/mL; in assay [15], 0.013 µg/mL; in [16] it was 0.0328 µg/mL. In addition, the neutralization IC50 (pseudovirus) was 0.0283 µg/mL in assay [12] and 0.013 µg/mL in assay [14]. The IC50 in [8] was > 50 µg/mL.
For the substance 4877_D15 (PGT-122) (antibody), the IC50, pseudovirus neutralization in assay [1] is > 10 µg/mL; in [2], > 50 µg/mL; in assay [3], 0.021 µg/mL; in assay [4], 0.005 µg/mL; in [6], > 50 µg/mL; in assay [9] it was > 50 µg/mL. This substance gave an IC50, pseudovirus neutralization in [10] of 0.007 µg/mL. Further, the results for the IC50 (µg/mL), pseudovirus neutralization in assay [5] and in [7] were 0.493 µg/mL and 2.31 µg/mL, respectively. In addition, the IC50 neutralization is 2.06 µg/mL in assay [11], 0.191 µg/mL in [13], 0.0337 µg/mL in [15] and 0.0851 µg/mL in assay [16]. Besides, the neutralization IC50 (pseudovirus) in assay [12] was determined as 0.0471 µg/mL; in [14], 0.0337 µg/mL. Moreover, the IC50 in assay [8] is > 50 µg/mL.
For 5145_B14 (PGT-127) (antibody), the IC50, pseudovirus neutralization in assay [2] was > 50 µg/mL; in assay [3], 0.067 µg/mL; in assay [4], 0.6 µg/mL; in assay [6] it was > 50 µg/mL; in [9], > 50 µg/mL; in assay [10] it was 0.021 µg/mL. The IC50 (µg/mL), pseudovirus neutralization was 0.129 µg/mL in assay [5] and > 50 µg/mL in assay [7]. For the same substance, the half-maximal inhibitory concentration (IC50) in assay [8] was > 50 µg/mL.
Turning to b12 (antibody), the IC50 (µg/ml), pseudovirus neutralization in assay [17] is > 50 µg/mL; in [19], > 50 µg/mL; in assay [20], > 50 µg/mL; in assay [22], > 50 µg/mL; in assay [23], > 50 µg/mL; in assay [24] it was 4.34 µg/mL. Besides, the IC50 (µg/ml), pseudovirus neutralization in assay [25] is > 50 µg/mL; in assay [26] it was > 50 µg/mL; in [27], > 50 µg/mL; in assay [29] it was > 50 µg/mL; in assay [30], 0.86 µg/mL; in assay [31], > 50 µg/mL. Also, the IC50 (µg/ml), pseudovirus neutralization in [33] turned out to be 5.23 µg/mL. Besides, the half-maximal inhibitory concentration (IC50) in [18], in assay [21] and in assay [32] was > 50 µg/mL throughout. Also, in [28], the IC50, pseudovirus neutralization is > 25 µg/mL.
